Reference: patent publication US20230242675A1 (SHANGHAI EPIMAB BIOTHERAPEUTICS, published 2023)
One block for each binder: values may come before it.

Experiments:
[1] = target: T1, cynomolgus (cyno) PD-L1/His fusion protein (cynomolgus, UniProt G7PSE7 19-239); test: BLI Octet RED96, cyno PD-L1
T1 construct: also called cynomolgus PD-L1; not shown: His tag

[2] = target: T2, human PD-L1 on the cell surface (CHO-K1 cells stably expressing human PD-L1) (human, UniProt Q9NZQ7 19-290); test: FACS on CHO-K1/hPD-L1 cells
T2 construct: whole, on cells; Also used here for PD-L1 on the monocyte-derived dendritic cells of the MLR assay (functional rows); also called CHO-K1/PD-L1; CHOK1-PD-L1
Procedure: The ability of the purified antibodies to bind to cell membrane human PD-L1 was determined by FACS analysis. CHO-K1 cells stably expressing human PD-L1 (CHO-K1/hPD-L1 cells) were resuspended in PBS containing 2% FBS (FACS buffer) and seeded at 1×10⁵ cells/well into 96-well round-bottomed plates (Corning; Cat. No. 3799). […] The assay plate was then read on a flow cytometer. The data were processed by GraphPad software, and EC50 values were calculated. The EC50 for binding activity according to this FACS analysis is the concentration at which of an antibody induces a response halfway between the baseline and maximum and reflects the binding ability of the antibody.

[3] = target: T1, cynomolgus (cyno) PD-L1/His fusion …; test: ELISA, coated cyno PD-L1 protein
Procedure: (§1) The ability of an antibody to bind human or cynomolgus (cyno) PD-L1 (binding activity) was determined by ELISA. ELISA plates were incubated overnight at 4° C. with 50 μl of the human or cyno PD-L1 protein described above diluted in PBS buffer, pH 7.4, at 1 μg/ml. Plates were washed four times in washing buffer (PBS containing 0.05% Tween 20) and blocked for 1 hour at 37° C. with 200 μl per well of blocking buffer (1% BSA in PBS containing 0.05% Tween 20). After blocking buffer was removed, diluted purified antibodies (200 nM and 1:5 serial dilutions to provide 7 concentrations of each antibody) were added to the wells at 100 μl per well and incubated at 37° C. for 1 hour. The wells were washed four times with washing buffer, and anti-human IgG (Fc-specific) HRP-conjugated antibody (Sigma), diluted 1:10,000, was added to the wells at 100 μl per well. The plates were incubated for 1 hour at 37° C. and washed four times in washing buffer. 100 μl of tetramethylbenzidine (TMB) chromogenic solution were added per well. Following color development, the reaction was stopped with 1 N HCl, and absorbance at 450 nm was measured on a VARIOSKAN™ LUX multimode microplate reader (ThermoFisher Scientific, Vataa, Finland). The data were processed by GraphPad software, and EC50 values were calculated. The EC50 for binding activity according to this ELSA is the concentration at which an antibody induces a response halfway between the baseline and maximum and indicates the binding ability of the antibody.

[4] = target: T3, human PD-L1/His fusion protein (human, UniProt Q9NZQ7 19-239); test: BLI off-rate; test group 1 (reference itself)
Procedure: (§2) Briefly, antibodies were characterized for affinities and binding kinetics by Octet®RED96 biolayer interferometry (Pall ForteBio LLC). Antibodies were captured by Anti-hIgG Fc Capture (AHC) Biosensors (Pall) at a concentration of 100 nM for 30 seconds. Sensors were then dipped into running buffer (1×pH 7.2 PBS, 0.05% Tween 20, 0.1% BSA) for 60 seconds to check baseline. Binding was measured by dipping sensors into a single concentration of recombinant human PD-L1/His fusion protein (Novoprotein). Dissociation was followed by dipping sensors into running buffer for 1200 seconds. The association and dissociation curves were fitted to a 1:1 Langmuir binding model using ForteBio Data Analysis software (Pall). […] The off-rate ratio serves as a data normalization. Accordingly, in each test group, the off-rate ratios of the humanized antibodies can be compared with that of the chimeric antibody, and the off-rate ratios of each of the humanized antibodies can be compared to one another within all test groups.

[5] = target: T3, human PD-L1/His fusion protein; test: BLI off-rate; test group 2 (reference itself)
Procedure: as §2

[6] = target: T3, human PD-L1/His fusion protein; test: BLI off-rate; test group 3 (reference itself)
Procedure: as §2

[7] = target: T3, human PD-L1/His fusion protein; test: BLI off-rate; test group 4 (reference itself)
Procedure: as §2

[8] = target: T3, human PD-L1/His fusion protein; test: ELISA, coated human PD-L1 protein, anti-human Fc detection
Procedure: as §1

[9] = target: human PD-L1/Fc Fusion Protein (human); test: RBA ELISA: coated PD-L1/Fc, competitor biotinylated human PD-1
Procedure: ELISA plates were coated with 100 μl of 1 μg/ml of human PD-L1/Fc in PBS and incubated overnight at 4° C. Plates were washed four times in washing buffer (PBS containing 0.05% Tween 20) and blocked for 1 hour at 37° C. with 200 μl per well of blocking buffer (1% BSA in PBS containing 0.05% Tween 20). […] A human IgG was included as negative control. The signal was developed by adding streptavidin-HRP (Cat. No. S2468, Sigma) (100 μl/well at 1:5000 dilution) and incubating for 40 minutes at 37° C., followed by washing four times in washing buffer. Then, 100 μl of TMB solution were added per well. Following color development, the reaction was stopped with 1 N HCl, and absorbance at 450 nm was measured. The data were processed by GraphPad software, and IC50 values were calculated. […] The signal reduction induced by antibody samples was normalized to inhibition percentage, where the negative control was 0% inhibition, and the absolute value of signal reduction of each antibody divided by the signal of the negative control equals the percent inhibition by the antibody.

[10] = target: T3, human PD-L1/His fusion protein; test: BLI Octet RED96, antibody on AHC sensor, PD-L1/His in solution
Procedure: Binding of antibodies to PD-L1 was also assessed using biolayer interferometry (BLI) using an Octet® RED96 sensor device (Pall ForteBio LLC). Antibodies were captured by anti-hIgG Fc capture (AHC) Biosensors (Pall) at a concentration of 100 nM for 30 seconds. Sensors were then dipped into running buffer (1×pH7.2 PBS, 0.05% Tween 20, 0.1% BSA) for 60 seconds to check the baseline. Binding was measured by dipping sensors into a series of diluted concentrations of recombinant human PD-L1/His fusion protein. Dissociation was followed by dipping sensors into running buffer for 1200 seconds. The association and dissociation curves were fitted to a 1:1 Langmuir binding model using ForteBio Data Analysis software (Pall). The equilibrium dissociation constant KD (molarity) of the reaction between antibodies and related target proteins was then calculated from the kinetic rate constants using the formula KD=koff/kon.

[11] = target: T3, human PD-L1/His fusion protein; test: BLI Octet RED96, antibody on AHC sensor, single conc. PD-L1/His; test group 1
Procedure: as §2

[12] = target: T3, human PD-L1/His fusion protein; test: BLI Octet RED96, antibody on AHC sensor, single conc. PD-L1/His; test group 2
Procedure: as §2

[13] = target: T3, human PD-L1/His fusion protein; test: BLI Octet RED96, antibody on AHC sensor, single conc. PD-L1/His; test group 3
Procedure: as §2

[14] = target: T3, human PD-L1/His fusion protein; test: BLI Octet RED96, antibody on AHC sensor, single conc. PD-L1/His; test group 4
Procedure: as §2

Chain of human PD-L1/Fc Fusion Protein (human) (chain, as listed by the source limits assumed): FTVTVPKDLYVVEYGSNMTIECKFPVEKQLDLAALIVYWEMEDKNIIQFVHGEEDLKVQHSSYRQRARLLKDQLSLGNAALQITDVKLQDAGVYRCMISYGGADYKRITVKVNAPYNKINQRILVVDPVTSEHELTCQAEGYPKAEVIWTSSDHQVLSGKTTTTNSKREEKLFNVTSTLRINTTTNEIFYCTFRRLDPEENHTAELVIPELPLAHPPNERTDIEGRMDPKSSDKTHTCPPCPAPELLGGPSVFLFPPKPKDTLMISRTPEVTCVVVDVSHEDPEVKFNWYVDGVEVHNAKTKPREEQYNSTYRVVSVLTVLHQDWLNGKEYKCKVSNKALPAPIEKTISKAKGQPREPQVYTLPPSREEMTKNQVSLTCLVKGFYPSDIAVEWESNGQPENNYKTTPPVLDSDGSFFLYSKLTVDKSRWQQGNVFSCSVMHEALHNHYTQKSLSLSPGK
T3 sequence (Q9NZQ7 19-239 limits assumed): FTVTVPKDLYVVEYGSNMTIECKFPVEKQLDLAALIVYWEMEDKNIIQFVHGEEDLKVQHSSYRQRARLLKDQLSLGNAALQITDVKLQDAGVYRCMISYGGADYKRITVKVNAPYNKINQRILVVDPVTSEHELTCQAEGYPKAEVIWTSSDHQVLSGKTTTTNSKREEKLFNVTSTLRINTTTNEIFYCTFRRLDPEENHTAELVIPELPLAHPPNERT
T1 sequence (G7PSE7 entry or part of it): as the sequence (Q9NZQ7 19-239 limits assumed) above, with A33T, A34S, S62N, R68Q, Q82R, F173L, T185A, T192I, H215L counted along it
T2 sequence (Q9NZQ7 19-290): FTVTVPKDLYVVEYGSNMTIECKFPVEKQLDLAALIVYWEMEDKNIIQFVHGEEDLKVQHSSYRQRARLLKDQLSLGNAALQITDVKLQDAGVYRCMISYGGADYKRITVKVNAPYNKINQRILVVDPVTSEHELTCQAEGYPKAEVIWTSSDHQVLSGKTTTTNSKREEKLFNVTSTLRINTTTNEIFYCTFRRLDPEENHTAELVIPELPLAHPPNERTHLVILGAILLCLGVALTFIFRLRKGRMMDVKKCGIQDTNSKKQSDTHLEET

Kd [1]: 493 pM
EC50 [2]: 420 pM
EC50 [3]: 60 pM
Off-Rate Ratio to that of EM0005-87c [4]: 100%
Off-Rate Ratio to that of EM0005-87c [5]: 100%
Off-Rate Ratio to that of EM0005-87c [6]: 100%
Off-Rate Ratio to that of EM0005-87c [7]: 100%
EC50 [8]: 80 pM
IC50 [9]: 940 pM
Inhibition (percent) [9]: 93.9%
Kd [10]: 981 pM
koff [11]: 0.00147 s⁻¹
koff [12]: 0.00104 s⁻¹
koff [13]: 0.00135 s⁻¹
koff [14]: 0.000897 s⁻¹
B1: EM0005-mAb87c (antibody, human IgG1, kappa, V domains shown)
VH: EVQLQQSGPELVKPGASVKISCKASGYSFTDYYINWVKQSPEKSLEWIGETIPNTGGTTYNQKFKAKATLTVDKSSSTAYMQLKSLTSEDSAVYYCARYQSGSPFAYWGQGTPVTVSS
VL: DIVMTQSQKFMSTTVGDRVSITCKASQNVGTAVAWYQQKPGQSPKLLIYSASNRYTGVPDRFTGSGSGTDFTLTISNMQSEDLADYFCQQHYSTPYTFGGGTKLEIKR
notes: Chimeric full-length IgG1; also called EM0005-87c

Kd [1]: 837 pM
EC50 [2]: 210 pM
EC50 [3]: 120 pM
Off-Rate Ratio to that of EM0005-90c [4]: 100%
Off-Rate Ratio to that of EM0005-90c [5]: 100%
Off-Rate Ratio to that of EM0005-90c [6]: 100%
Off-Rate Ratio to that of EM0005-90c [7]: 100%
EC50 [8]: 150 pM
IC50 [9]: 1050 pM
Inhibition (percent) [9]: 94.4%
Kd [10]: 681 pM
koff [11]: 0.000253 s⁻¹
koff [12]: 0.000342 s⁻¹
koff [13]: 0.000382 s⁻¹
koff [14]: 0.00225 s⁻¹
B2: EM0005-mAb90c (antibody, human IgG1, kappa, V domains shown)
VH: QVQLKQSGAELVRPGSSVKMSCKTSGYTFTSHSINWVKQRPGQGLEWIGYMYIGNGYTEYNEKFKGKATLTSDTSSTTAYMQLSSLTSEDSAIYFCAKITPVVAPYVMDYWGQGTSVTVSS
VL: DIVMTQTHKFMSTSVGDRVSITCKASQDVGTAVAWYQQKPGQSPKLLIYWASTRHTGVPDRFTGSGSGTDFTLTISNVQSEDLADYFCQQYSSYPYTFGGGTKLELKR
notes: Chimeric full-length IgG1; also called EM0005-90c
